Test results reported in publication PMC1933539.

How the values were obtained:
[1] = target: SycO (Yersinia enterocolitica type three secretion chaperone SycO) (Yersinia enterocolitica WA-314); assay: SEC; analytical gel filtration, SMART system, Superdex 75 PC 3.2/30 in PBS; 50 μg SycO mixed with 50 μg carbonic anhydrase (29 kDa marker); fractions analysed by SDS-PAGE; column calibrated with marker proteins
[2] = target: SycO (Yersinia enterocolitica type three secretion chaperone SycO) (Yersinia enterocolitica WA-314); assay: cross-linking; 1.3 mM DSP, 3 μg/μl recombinant SycO in PBS, 30 min at 22°C; Coomassie-stained SDS-PAGE

## SycO (Yersinia enterocolitica type three secretion chaperone SycO) (natural protein)
[1]
  stoichiometry N: 2
[2]
  stoichiometry N: 2
